Earlier results, collected in article PMC4303689.

Biological target: His50 (UniProt position 50, KEGVVHGVATV)
Experiment: NMR
Conditions: not stated (the range of values reflects different ionic strengths); free monomeric alpha-synuclein (inferred from context)

In the case of alpha-synuclein (Homo sapiens), the pKa is listed as 6.5–6.8.
